The source of these data is paper PMC10817169, “The universal suppressor mutation restores membrane budding defects in the HSV-1 nuclear egress complex by stabilizing the oligomeric lattice” (PLOS Pathogens, 2024).

The chains are these.
B12: UL31 51-306 R229L (SUP_(UL31)Δ50-306) (domain or fragment)
chain: QELCLHERQRYRGLFAALAQTPSEEIAIVRSLSVPLVKTTPVSLPFCLDQTVADNCLTLSGMGYYLGIGGCCPACNAGDGRFAATSREALILAFVQQINTIFEHRAFLASLVVLADRHNAPLQDLLAGILGQPELFFVHTILRGGGACDPRLLFYPDPTYGGHMLYVIFPGTSAHLHYLLIDRMLTACPGYRFVAHVWQSTFVLVVRRNAEKPTDAEIPTVSAADIYCKMRDISFDGGLMLEYQRLYATFDEFPPP
notes: also called R229L_(UL31)Δ50-306; UL31 chain of NEC185Δ50-SUP_(UL31)

Data set [1] has as its target T1, UL31 1-306 (wild type) (HSV-1, UniProt P10215 1-306).
T1 construct: also called WT UL31; UL31 chain of NEC220
T1 sequence: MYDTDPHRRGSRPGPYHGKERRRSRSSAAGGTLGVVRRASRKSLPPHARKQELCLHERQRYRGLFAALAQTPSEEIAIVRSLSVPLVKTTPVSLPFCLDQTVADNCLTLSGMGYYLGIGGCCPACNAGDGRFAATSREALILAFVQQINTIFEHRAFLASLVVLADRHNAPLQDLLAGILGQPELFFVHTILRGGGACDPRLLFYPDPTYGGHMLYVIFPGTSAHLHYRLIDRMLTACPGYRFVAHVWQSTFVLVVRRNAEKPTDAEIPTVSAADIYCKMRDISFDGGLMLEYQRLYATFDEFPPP
Kind of data set: cryo-EM structure; cryoET with sub-tomographic averaging of membrane-bound coats; 1 mg/mL NEC with 400 and 800 nm LUVs (POPC:POPS:POPA = 3:1:1), 30 min on ice. Conditions: both partners purified.

Data set [2] concerns the molecule itself. The description is as above.
In data set [3] the target is T1, UL31 1-306 (wild type). Kind of data set: SEC; co-expressed and co-purified UL31/UL34, tags cleaved, equimolar amounts loaded on Superdex 75 10/300 in 20 mM Na HEPES pH 7.0, 100 mM NaCl, 1 mM TCEP, 4°C; fractions analysed by SDS-PAGE. The note with it: both partners purified. For orientation: In gel filtration, larger molecules generally elute earlier.
The target in data set [4] is T2, UL31 1-306 R229L_(UL31) (HSV-1, UniProt P10215 1-306, R229L).
T2 construct: also called SUP_(UL31); UL31 chain of NEC220-SUP_(UL31)
T2 sequence: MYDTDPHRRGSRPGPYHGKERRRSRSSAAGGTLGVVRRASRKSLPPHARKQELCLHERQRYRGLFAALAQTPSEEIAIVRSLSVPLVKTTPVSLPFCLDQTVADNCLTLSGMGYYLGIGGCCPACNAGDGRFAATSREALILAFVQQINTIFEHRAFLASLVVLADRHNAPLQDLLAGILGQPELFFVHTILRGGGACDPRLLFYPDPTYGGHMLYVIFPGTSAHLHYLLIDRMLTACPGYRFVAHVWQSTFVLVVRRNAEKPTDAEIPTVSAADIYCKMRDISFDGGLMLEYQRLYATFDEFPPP
The data set is described as above. Conditions: both partners purified.

For data set [5], the target named is B12. Kind of data set: crystal structure. The note with it: both partners purified.
Data set [6] deals with the molecule itself. Kind of data set: crystal structure.

B1: UL34 1-220 (wild type) (domain or fragment)
chain: MAGLGKPYTGHPGDAFEGLVQRIRLIVPSTLRGGDGEAGPYSPSSLPSRCAFQFHGHDGSDESFPIEYVLRLMNDWAEVPCNPYLRIQNTGVSVLFQGFFHRPHNAPGGAITPERTNVILGSTETTGLSLGDLDTIKGRLGLDARPMMASMWISCFVRMPRVQLAFRFMGPEDAGRTRRILCRAAEQAITRRRRTRRSREAYGAEAGLGVAGTGFRARGD
notes: also called UL34 chain of NEC220; not shown: GST, N-terminal, cleaved
As for B1, the binding result in data set [1] is “binds”.

B2: NEC220 (wild-type HSV-1 nuclear egress complex, UL31 1-306 with UL34 1-220) (complex)
chain 1: MYDTDPHRRGSRPGPYHGKERRRSRSSAAGGTLGVVRRASRKSLPPHARKQELCLHERQRYRGLFAALAQTPSEEIAIVRSLSVPLVKTTPVSLPFCLDQTVADNCLTLSGMGYYLGIGGCCPACNAGDGRFAATSREALILAFVQQINTIFEHRAFLASLVVLADRHNAPLQDLLAGILGQPELFFVHTILRGGGACDPRLLFYPDPTYGGHMLYVIFPGTSAHLHYRLIDRMLTACPGYRFVAHVWQSTFVLVVRRNAEKPTDAEIPTVSAADIYCKMRDISFDGGLMLEYQRLYATFDEFPPP
chain 2: MAGLGKPYTGHPGDAFEGLVQRIRLIVPSTLRGGDGEAGPYSPSSLPSRCAFQFHGHDGSDESFPIEYVLRLMNDWAEVPCNPYLRIQNTGVSVLFQGFFHRPHNAPGGAITPERTNVILGSTETTGLSLGDLDTIKGRLGLDARPMMASMWISCFVRMPRVQLAFRFMGPEDAGRTRRILCRAAEQAITRRRRTRRSREAYGAEAGLGVAGTGFRARGD
In the case of B2, the binding result in data set [2] is on record as “binds”.

B3: NEC220-DN_(UL34)/SUP_(UL31) (complex)
chain 1: MYDTDPHRRGSRPGPYHGKERRRSRSSAAGGTLGVVRRASRKSLPPHARKQELCLHERQRYRGLFAALAQTPSEEIAIVRSLSVPLVKTTPVSLPFCLDQTVADNCLTLSGMGYYLGIGGCCPACNAGDGRFAATSREALILAFVQQINTIFEHRAFLASLVVLADRHNAPLQDLLAGILGQPELFFVHTILRGGGACDPRLLFYPDPTYGGHMLYVIFPGTSAHLHYLLIDRMLTACPGYRFVAHVWQSTFVLVVRRNAEKPTDAEIPTVSAADIYCKMRDISFDGGLMLEYQRLYATFDEFPPP
chain 2: MAGLGKPYTGHPGDAFEGLVQRIRLIVPSTLRGGAGAAGPYSPSSLPSRCAFQFHGHDGSDESFPIEYVLRLMNDWAEVPCNPYLRIQNTGVSVLFQGFFHRPHNAPGGAITPERTNVILGSTETTGLSLGDLDTIKGRLGLDARPMMASMWISCFVRMPRVQLAFRFMGPEDAGRTRRILCRAAEQAITRRRRTRRSREAYGAEAGLGVAGTGFRARGD
notes: also called NEC-DN_(UL34)/SUP_(UL31)
As for B3, the binding result in data set [2] was “binds”.

B4: NEC220-SUP_(UL31) (complex)
chain 1: MYDTDPHRRGSRPGPYHGKERRRSRSSAAGGTLGVVRRASRKSLPPHARKQELCLHERQRYRGLFAALAQTPSEEIAIVRSLSVPLVKTTPVSLPFCLDQTVADNCLTLSGMGYYLGIGGCCPACNAGDGRFAATSREALILAFVQQINTIFEHRAFLASLVVLADRHNAPLQDLLAGILGQPELFFVHTILRGGGACDPRLLFYPDPTYGGHMLYVIFPGTSAHLHYLLIDRMLTACPGYRFVAHVWQSTFVLVVRRNAEKPTDAEIPTVSAADIYCKMRDISFDGGLMLEYQRLYATFDEFPPP
chain 2: MAGLGKPYTGHPGDAFEGLVQRIRLIVPSTLRGGDGEAGPYSPSSLPSRCAFQFHGHDGSDESFPIEYVLRLMNDWAEVPCNPYLRIQNTGVSVLFQGFFHRPHNAPGGAITPERTNVILGSTETTGLSLGDLDTIKGRLGLDARPMMASMWISCFVRMPRVQLAFRFMGPEDAGRTRRILCRAAEQAITRRRRTRRSREAYGAEAGLGVAGTGFRARGD
notes: also called NEC-SUP_(UL31)
In the case of B4, the binding result in data set [2] is listed as “binds”.

B5: UL34 1-220 R139A_(UL34) (domain or fragment)
chain: MAGLGKPYTGHPGDAFEGLVQRIRLIVPSTLRGGDGEAGPYSPSSLPSRCAFQFHGHDGSDESFPIEYVLRLMNDWAEVPCNPYLRIQNTGVSVLFQGFFHRPHNAPGGAITPERTNVILGSTETTGLSLGDLDTIKGALGLDARPMMASMWISCFVRMPRVQLAFRFMGPEDAGRTRRILCRAAEQAITRRRRTRRSREAYGAEAGLGVAGTGFRARGD
notes: also called UL34 chain of NEC220-R139A_(UL34); not shown: GST, N-terminal, cleaved
In the case of B5, in data set [3], the binding result is “binds”.

B6: UL34 1-220 K137A_(UL34)/R139A_(UL34) (domain or fragment)
chain: MAGLGKPYTGHPGDAFEGLVQRIRLIVPSTLRGGDGEAGPYSPSSLPSRCAFQFHGHDGSDESFPIEYVLRLMNDWAEVPCNPYLRIQNTGVSVLFQGFFHRPHNAPGGAITPERTNVILGSTETTGLSLGDLDTIAGALGLDARPMMASMWISCFVRMPRVQLAFRFMGPEDAGRTRRILCRAAEQAITRRRRTRRSREAYGAEAGLGVAGTGFRARGD
notes: also called UL34 chain of NEC220-K137A_(UL34)/R139A_(UL34); not shown: GST, N-terminal, cleaved
Regarding B6, the binding result in data set [3] and in data set [4] was “binds” each time.

B7: UL34 1-220 K137A_(UL34) (domain or fragment)
chain: MAGLGKPYTGHPGDAFEGLVQRIRLIVPSTLRGGDGEAGPYSPSSLPSRCAFQFHGHDGSDESFPIEYVLRLMNDWAEVPCNPYLRIQNTGVSVLFQGFFHRPHNAPGGAITPERTNVILGSTETTGLSLGDLDTIAGRLGLDARPMMASMWISCFVRMPRVQLAFRFMGPEDAGRTRRILCRAAEQAITRRRRTRRSREAYGAEAGLGVAGTGFRARGD
notes: also called UL34 chain of NEC220-K137A_(UL34); not shown: GST, N-terminal, cleaved
B7: the binding result in data set [3] and in data set [4] was “binds” each time.

B8: UL34 15-185 D35A_(UL34)/E37A_(UL34) (domain or fragment)
chain: AFEGLVQRIRLIVPSTLRGGAGAAGPYSPSSLPSRCAFQFHGHDGSDESFPIEYVLRLMNDWAEVPCNPYLRIQNTGVSVLFQGFFHRPHNAPGGAITPERTNVILGSTETTGLSLGDLDTIKGRLGLDARPMMASMWISCFVRMPRVQLAFRFMGPEDAGRTRRILCRAA
notes: also called DN_(UL34); UL34 chain of NEC185Δ50-DN_(UL34)/SUP_(UL31); not shown: GST, N-terminal, cleaved
As to B8, the binding result in data set [5] was “binds”.

B9: UL34 15-185 (domain or fragment)
chain: AFEGLVQRIRLIVPSTLRGGDGEAGPYSPSSLPSRCAFQFHGHDGSDESFPIEYVLRLMNDWAEVPCNPYLRIQNTGVSVLFQGFFHRPHNAPGGAITPERTNVILGSTETTGLSLGDLDTIKGRLGLDARPMMASMWISCFVRMPRVQLAFRFMGPEDAGRTRRILCRAA
notes: also called UL34 chain of NEC185Δ50-SUP_(UL31); not shown: GST, N-terminal, cleaved
Regarding B9, the binding result in data set [5] and in data set [6] was “binds” in each case.

B10: NEC185Δ50-SUP_(UL31) (complex)
chain 1: QELCLHERQRYRGLFAALAQTPSEEIAIVRSLSVPLVKTTPVSLPFCLDQTVADNCLTLSGMGYYLGIGGCCPACNAGDGRFAATSREALILAFVQQINTIFEHRAFLASLVVLADRHNAPLQDLLAGILGQPELFFVHTILRGGGACDPRLLFYPDPTYGGHMLYVIFPGTSAHLHYLLIDRMLTACPGYRFVAHVWQSTFVLVVRRNAEKPTDAEIPTVSAADIYCKMRDISFDGGLMLEYQRLYATFDEFPPP
chain 2: AFEGLVQRIRLIVPSTLRGGDGEAGPYSPSSLPSRCAFQFHGHDGSDESFPIEYVLRLMNDWAEVPCNPYLRIQNTGVSVLFQGFFHRPHNAPGGAITPERTNVILGSTETTGLSLGDLDTIKGRLGLDARPMMASMWISCFVRMPRVQLAFRFMGPEDAGRTRRILCRAA
notes: also called NEC-SUP_(UL31) crystallization construct; source: E. coli BL21(DE3) LoBSTr, co-expressed, purified (Ni Sepharose, Glutathione Sepharose, tags cleaved, Talon, Superdex 75)
In the case of B10, in data set [6], the stoichiometry N (in general, the number of molecules, sites or subunits per partner or assembly) was 6.

B11: NEC185Δ50-DN_(UL34)/SUP_(UL31) (complex)
chain 1: QELCLHERQRYRGLFAALAQTPSEEIAIVRSLSVPLVKTTPVSLPFCLDQTVADNCLTLSGMGYYLGIGGCCPACNAGDGRFAATSREALILAFVQQINTIFEHRAFLASLVVLADRHNAPLQDLLAGILGQPELFFVHTILRGGGACDPRLLFYPDPTYGGHMLYVIFPGTSAHLHYLLIDRMLTACPGYRFVAHVWQSTFVLVVRRNAEKPTDAEIPTVSAADIYCKMRDISFDGGLMLEYQRLYATFDEFPPP
chain 2: AFEGLVQRIRLIVPSTLRGGAGAAGPYSPSSLPSRCAFQFHGHDGSDESFPIEYVLRLMNDWAEVPCNPYLRIQNTGVSVLFQGFFHRPHNAPGGAITPERTNVILGSTETTGLSLGDLDTIKGRLGLDARPMMASMWISCFVRMPRVQLAFRFMGPEDAGRTRRILCRAA
notes: also called NEC-DN_(UL34)/SUP_(UL31) crystallization construct; NEC185Δ50-DN34/SUP31; source: E. coli BL21(DE3) LoBSTr, co-expressed, purified (Ni Sepharose, Glutathione Sepharose, tags cleaved, Talon, Superdex 75)
On to B11, for which the binding result in data set [6] was “binds”.
Same read-out and setting: the entry for B12 is “binds”.
